Test results published in article PMC3581772, “Protease-activated alpha-2-macroglobulin can inhibit amyloid formation via two distinct mechanisms” (Febs Letters, 2013).

Molecular target: the molecule itself
Assay: thioflavin T fluorescence of fibril formation; I59T lysozyme 6.8 μM, 0.1 M citrate buffer pH 5.0, 25 μM ThT, 60 °C, with stirring; self-association into fibrils

B1: I59T human lysozyme (natural protein, UniProt P61626 19-148, looked up)
chain: KVFERCELARTLKRLGMDGYRGISLANWMCLAKWESGYNTRATNYNAGDRSTDYGIFQTNSRYWCNDGKTPGAVNACHLSCSALLQDNIADAVACAKRVVRDPQGIRAWVAWRNRCQNRDVRQYVQGCGV
notes: human lysozyme, non-natural variant I59T; monomer 14.7 kDa; also called I59T lysozyme; source: expressed and purified as previously described [16]
binding result: binds
